Data set [1] addresses T1, Dda 1993 K358E K358E (Enterobacteria phage T4) (UniProt P32270).
T1 sequence: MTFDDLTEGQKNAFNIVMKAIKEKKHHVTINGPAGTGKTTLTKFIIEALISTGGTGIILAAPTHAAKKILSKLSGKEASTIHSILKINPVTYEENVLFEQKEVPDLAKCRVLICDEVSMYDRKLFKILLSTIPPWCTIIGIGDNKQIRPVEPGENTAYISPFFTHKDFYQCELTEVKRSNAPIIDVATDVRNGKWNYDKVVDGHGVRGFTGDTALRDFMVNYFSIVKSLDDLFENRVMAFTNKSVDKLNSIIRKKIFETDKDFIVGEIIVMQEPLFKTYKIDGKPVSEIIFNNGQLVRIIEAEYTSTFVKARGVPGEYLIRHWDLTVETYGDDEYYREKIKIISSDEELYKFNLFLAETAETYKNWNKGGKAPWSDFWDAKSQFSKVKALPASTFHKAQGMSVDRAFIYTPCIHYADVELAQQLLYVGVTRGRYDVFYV
The conditions noted are these: nanopore translocation, FLO-MIN106; background mutations not given.

Data set [2] addresses T2, Dda 1993 K358M K358M (Enterobacteria phage T4) (UniProt P32270).
T2 sequence: T1 sequence with E358M
The settings on record: nanopore translocation, FLO-MIN106; background mutations not given.

Data set [3] addresses T3, Dda 1993 K177T K177T (Enterobacteria phage T4) (UniProt P32270).
T3 sequence: T1 sequence with K177T, E358K
The conditions noted are these: nanopore translocation; background mutations not given.

The target in data set [4] is T4, Dda 1993 K177N K177N (Enterobacteria phage T4) (UniProt P32270).
T4 sequence: T1 sequence with K177N, E358K
The conditions noted are these: nanopore translocation; background mutations not given.

Data set [5] addresses T5, Dda 1993 K177G K177G (Enterobacteria phage T4) (UniProt P32270).
T5 sequence: T1 sequence with K177G, E358K
The settings on record: nanopore translocation; background mutations not given.

The target in data set [6] is T6, Dda 1993 K177L K177L (Enterobacteria phage T4) (UniProt P32270).
T6 sequence: T1 sequence with K177L, E358K
The settings on record: nanopore translocation; background mutations not given.

Positions count from the first letter of the chain named.

As to “barcoded 3.6 kb DNA analyte ligated to sequencing Y adaptor”, the activity (bps speed delta vs control) was -53.9 in data set [1]; -48.6 in data set [2]; 22.6 in data set [3]; 2.4 in data set [4]; -27.6 in data set [5]; 51.4 in data set [6].

These data come from US20250382602.
